Data as given in patent US20090311265A1 (CRUCELL HOLLAND B V, published 2009).

Assays:
[1] = biological target: recombinant HA, subtype H3 (A/Wyoming/3/2003(H3N2)) (influenza A virus A/Wyoming/3/2003 …); experiment: ELISA, coated HA, IgG 5 µg/ml
[2] = biological target: soluble recombinant HA (sHA) of H5N1TV (influenza A virus A/Vietnam/1194/2004 …, UniProt Q6J8F6 17-528); experiment: immunoblot (data not shown)
[3] = biological target: recombinant HA, subtype H5 (A/Vietnam/1203/2004 (H5N1)) (influenza A virus A/Vietnam/1203/2004 …, UniProt Q80A26 6-554); experiment: ELISA, coated HA, IgG 5 µg/ml
[4] = biological target: recombinant HA, subtype H1 (A/New Caledonia/20/99 (H1N1)) (influenza A virus A/New Caledonia/20/99 …, UniProt Q289M7 18-565); experiment: ELISA, coated HA, IgG 5 µg/ml
[5] = biological target: full-length HA from isolate A/Vietnam/1194/2004 (H5N1TV) on PER.C6 cells (influenza A virus A/Vietnam/1194/2004 …, UniProt Q80A26 6-554); experiment: flow cytometry, transfected PER.C6 cells

B1: CR6325 (antibody, V domains shown)
VH: EVQLVESGAEVKKPGSSVKVSCKASGGTFSFYSMSWVRQAPGQGLEWMGGIIPMFGTTNYAQKFQGRVTITAVESTSTAYMEVSSLRSEDTAVYYCARGDKGIYYYYMDVWGKGTTVTVSS
VL: QSALTQPASVSGSPGQSITISCTGTSSDVGGYNYVSWYQQHPGKAPKLMIYEVSNRPSGVSNRFSGSKSGNTASLTISGLQAEDEADYYCSSYTSSSTLVFGTGTKVTVLG
OD 492 nm [1]: 0.07 OD 492 nm

B2: CR6141 (antibody, V domains shown)
VH: EVQLVQSGAEVKKPGASVKVSCKASGYTFTGYYVYWVRQAPGQGLEWMGWISAYNGNTNYAQKFQGRVTITADKSTSTAYMELSSLRSEDTAVYYCARSRSLDVWGQGTTVTVSS
VL: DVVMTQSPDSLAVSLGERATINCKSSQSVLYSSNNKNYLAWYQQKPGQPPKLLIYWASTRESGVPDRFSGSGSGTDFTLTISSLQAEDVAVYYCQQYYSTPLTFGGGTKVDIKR
binding result [2]: binds

B3: CR6344 (antibody, V domains shown)
VH: QVQLVQSGAEVKKPGSSVRVSCKASGSIFRNYAMSWVRQAPGQGLEWMGGIIAIFGTPKYAQKFQGRVTITADESTSTVYMELSGLRSEDTAMYYCARIPHYNFGSGSYFDYWGQGTLVTVSS
VL: TVLTQPPSVSGAPGQRVTISCTGSSSNIGAGYDVHWYQQLPGTAPKLLIYGNSNRPSGVPDRFSGSKSGTSATLGITGLQTGDEADYYCGTWDSSLSAYVFGTGTKVTVLG
OD 492 nm [1]: 0.09 OD 492 nm
OD 492 nm [3]: 1.31 OD 492 nm
OD 492 nm [4]: 1.8 OD 492 nm
flow cytometry signal at 0.1 µg/ml [5]: 107
flow cytometry signal at 1 µg/ml [5]: 328
flow cytometry signal at 10 µg/ml [5]: 768

B4: CR6262 (antibody, V domains shown)
VH: QVQLQQSGAEVKKPGSSVKVSCKVSGVIFSGSAISWVRQAPGQGLEWMGGISPLFGTTNYAQKFQGRVTITADQSTNTTYMEVNSLRYEDTAVYFCARGPKYYSEYMDVWGKGTTVTVSS
VL: DIQMTQSPSSLSASVGDRVTITCRASQGISSYLAWYQQKPGKVPTLLIYDASTLRSGVPSRFSGSGSATDFTLTISSLQPEDVATYYCQRYNSAPPITFGQGTRLEIKR
OD 492 nm [1]: 0.09 OD 492 nm
OD 492 nm [3]: 1.02 OD 492 nm
OD 492 nm [4]: 1.48 OD 492 nm
flow cytometry signal at 0.1 µg/ml [5]: 8.06
flow cytometry signal at 1 µg/ml [5]: 20.9
flow cytometry signal at 10 µg/ml [5]: 84.3

B5: CR6332 (antibody, V domains shown)
VH: QVQLVQSGAEVKKPGSSVKVSCKASGGPFRNFAINWVRQAPGQGLEWMGGIIAVFGTTKYAHKFQGRVTITADDSTNTAYMELGSLKSEDTAVYYCARGPHYYSSYMDVWGEGTTVTVSS
VL: DIQLTQSPSSLSASVGDRVTITCRASQGISTYLAWYQQKPGKVPKLLIYAASTLQSGVPSRFSGSGSGTDFTLTISSLQPEDVATYYCQKYNSAPSFGPGTKVDIKR
OD 492 nm [1]: 0.15 OD 492 nm
OD 492 nm [3]: 1.65 OD 492 nm
OD 492 nm [4]: 2.2 OD 492 nm

B6: CR6328 (antibody, V domains shown)
VH: EVQLVESGAEVKKPGSSVKVSCKASGHIFSGYAISWVRQAPGQGLEWMGGIIPIFGTTNYAQKFQGRVTITADQSTSTAYMDLSNLRSEDTAVYYCARVKDGYCTLTSCPVGWYFDLWGRGTLVTVSS
VL: not shown
OD 492 nm [1]: 0.07 OD 492 nm
OD 492 nm [3]: 1.78 OD 492 nm
OD 492 nm [4]: 2.43 OD 492 nm

B7: CR6329 (antibody, V domains shown)
VH: EVQLVQSGAEVKKPGSSVKVSCKASGGIFRSNSISWVRQAPGQGLEWMGGIFALFGTTDYAQKFQGRVTITADESSTTVYLELSSLTSEDTAVYYCARGSGYTTRNYFDYWGQGTLVTVSS
VL: EIVLTQSPGTLSLSPGERATLSCRASQSVSSNYLGWYQQKPGQAPRLLIYGASSRASGIPDRFSGGGSGTDFTLTISRLEPEDFAVYYCQQYGSSPLTFGGGTKVEIKR
OD 492 nm [1]: 0.08 OD 492 nm

B8: CR6268 (antibody, V domains shown)
VH: QVQLVQSGAEVKKPGSSVKVSCKASGGTFSSYAISWVRQAPGQGLEWMGGIMGMFGTTNYAQKFQGRVTITADEFTSAAYMELRSLRSEDTAVYYCARSSGYYPEYFQDWGQGTLVTVSS
VL: QSVLTQPPSESVSPGQTASVTCSGHKLGDKYVSWYQQKPGQSPVLLIYQDNRRPSGIPERFIGSNSGNTATLTISGTQALDEADYYCQAWDSSTAVFGGGTKLTVLG
OD 492 nm [1]: 0.08 OD 492 nm
OD 492 nm [3]: 1.3 OD 492 nm
OD 492 nm [4]: 1.78 OD 492 nm
flow cytometry signal at 0.1 µg/ml [5]: 43.7
flow cytometry signal at 1 µg/ml [5]: 219
flow cytometry signal at 10 µg/ml [5]: 422

B9: CR6336 (antibody, V domains shown)
VH: QMQLVQSGAEVKKPGSSVKVSCKASGGTFSSYAISWVRQAPGQGLEWMGGIFGMFGTANYAQKFQGRVTITADEFTSAAYMELSSLGSEDTAMYYCARSSGYYPQYFQDWGQGTLVTVSS
VL: EIVMTQSPGTLSLSPGQRATLSCRASQSVSSSYLAWYQQKPGQAPRLLMYGASSRATGIPDRFSGSGSGTDFTLTISRLEPEDFAVYYCQQYGSSSLTFGGGTKLEIKR
OD 492 nm [1]: 0.1 OD 492 nm
OD 492 nm [3]: 1.41 OD 492 nm
OD 492 nm [4]: 1.92 OD 492 nm

B10: CR6334 (antibody, V domains shown)
VH: EVQLVETGAEVKKPGSSVKVPCKSSGSPFRSNAVSWVRQAPGQGLEWVGGILGVFGSPSYAQKFQGRVTITADESTNTVHMELRGLRSEDTAVYYCARGPTYYYSYMDVWGKGTTVTVSS
VL: SYVLTQPPSESVAPGQTARITCGGNNIGRNSVHWYQQKPGQAPVLVVYDDSDRPSGIPERFSGSKSGNTATLIISRVEVGDEADYYCQVWHSSSDHYVFGTGTKVTVLG
OD 492 nm [1]: 0.07 OD 492 nm
OD 492 nm [3]: 1.19 OD 492 nm
OD 492 nm [4]: 2.04 OD 492 nm

B11: CR6255 (antibody, V domains shown)
VH: EVQLVESGAEVKKPGSSVKVSCKASGGPFRSYAISWVRQAPGQGPEWMGGIIPIFGTTKYAPKFQGRVTITADDFAGTVYMELSSLRSEDTAMYYCAKHMGYQVRETMDVWGKGTTVTVSS
VL: SYVLTQPPSASGTPGQRVTISCSGSTFNIGSNAVDWYRQLPGTAPKLLIYSNNQRPSGVPDRFSGSRSGTSASLAISGLQSEDEADYYCAAWDDILNVPVFGGGTKLTVLG
OD 492 nm [1]: 0.08 OD 492 nm
OD 492 nm [3]: 1.44 OD 492 nm
OD 492 nm [4]: 1.91 OD 492 nm
flow cytometry signal at 0.1 µg/ml [5]: 60.4
flow cytometry signal at 1 µg/ml [5]: 257
flow cytometry signal at 10 µg/ml [5]: 414

B12: CR6314 (antibody, V domains shown)
VH: EVQLVESGAEVKKPGSSVKVSCKASGGPFRSYAISWVRQAPGQGPEWMGGIIPIFGTTKYAPKFQGRVTITADDFAGTVYMELSSLRSEDTAMYYCAKHMGYQVRETMDVWGKGTTVTVSS
VL: SYVLTQPPSASGTPGQRVTISCSGSSSNIGSNYVYWYQQLPGTAPKLLIYRDGQRPSGVPDRFSGSKSGTSASLAISGLRSDDEADYYCATWDDNLSGPVFGGGTKLTVLG
OD 492 nm [1]: 0.07 OD 492 nm
OD 492 nm [3]: 1.48 OD 492 nm
OD 492 nm [4]: 1.93 OD 492 nm
flow cytometry signal at 0.1 µg/ml [5]: 44.5
flow cytometry signal at 1 µg/ml [5]: 167
flow cytometry signal at 10 µg/ml [5]: 400

B13: CR6257 (antibody, V domains shown)
VH: QVQLVQSGAEVKKPGSSVKVSCKASGGPFRSYAISWVRQAPGQGPEWMGGIIPIFGTTKYAPKFQGRVTITADDFAGTVYMELSSLRSEDTAMYYCAKHMGYQVRETMDVWGKGTTVTVSS
VL: QSALTQPAAVSGSPGQSITISCTGTSSDVGGYNYVSWYQQHPGKAPKLMIYEVSNRPSGVSNRFSGSKSGNTASLTISGLQAEDEADYYCSSYTSSSTYVFGTGTKVTVLG
OD 492 nm [1]: 0.08 OD 492 nm
OD 492 nm [3]: 1.37 OD 492 nm
OD 492 nm [4]: 1.93 OD 492 nm
flow cytometry signal at 0.1 µg/ml [5]: 62.1
flow cytometry signal at 1 µg/ml [5]: 284
flow cytometry signal at 10 µg/ml [5]: 365

B14: CR6261 (antibody, V domains shown)
VH: EVQLVESGAEVKKPGSSVKVSCKASGGPFRSYAISWVRQAPGQGPEWMGGIIPIFGTTKYAPKFQGRVTITADDFAGTVYMELSSLRSEDTAMYYCAKHMGYQVRETMDVWGKGTTVTVSS
VL: QSVLTQPPSVSAAPGQKVTISCSGSSSNIGNDYVSWYQQLPGTAPKLLIYDNNKRPSGIPDRFSGSKSGTSATLGITGLQTGDEANYYCATWDRRPTAYVVFGGGTKLTVLG
OD 492 nm [1]: 0.07 OD 492 nm

B15: CR6260 (antibody, V domains shown)
VH: EVQLVESGAEVKKPGSSVKVSCKASGGPFRSYAISWVRQAPGQGPEWMGGIIPIFGTTKYAPKFQGRVTITADDFAGTVYMELSSLRSEDTAMYYCAKHMGYQVRETMDVWGKGTTVTVSS
VL: SYVLTQPPSVSGTPGQRVTISCSGSRSNVGDNSVYWYQHVPEMAPKLLVYKNTQRPSGVPARFSGSKSGTSASLAIIGLQSGDEADYYCVAWDDSVDGYVFGSGTKVTVLG
OD 492 nm [1]: 0.08 OD 492 nm
OD 492 nm [3]: 1.45 OD 492 nm
flow cytometry signal at 0.1 µg/ml [5]: 31.1
flow cytometry signal at 1 µg/ml [5]: 168
flow cytometry signal at 10 µg/ml [5]: 323

B16: CR6310 (antibody, V domains shown)
VH: EVQLVESGAEVKKPGSSVKVSCKASGGPFRSYAISWVRQAPGQGPEWMGGIIPIFGTTKYAPKFQGRVTITADDFAGTVYMELSSLRSEDTAMYYCAKHMGYQVRETMDVWGKGTTVTVSS
VL: SYVLTQPPSVSVAPGQTARITCGGNNIGSKSVHWYQQKPGQAPVLVVYDDSDRPSGIPERFSGSNSGNTATLTISRVEAGDEADYYCQVWDSSSDHAVFGGGTQLTVLG
OD 492 nm [1]: 0.08 OD 492 nm
OD 492 nm [3]: 1.37 OD 492 nm

B17: CR6327 (antibody, V domains shown)
VH: EVQLVETGAEVKKPGSSVKVSCKASGGTFRTHAISWVRQAPGQGLEWMGGIIAIFGTANYAQKFQGRITITADESTSTAYMELSSLRSEDTAVYFCARGSGYHISTPFDNWGQGTLVTVSS
VL: SYVLTQPPSVSVAPGQTARITCGGNNIGSKGVHWYQQKPGQAPVLVVYDDSDRPSGIPERFSGSNSGNTATLTISRVEAGDEADYYCQVWDSSSDHVVFGGGTKLTVLG
OD 492 nm [1]: 0.08 OD 492 nm
OD 492 nm [3]: 1.11 OD 492 nm

B18: CR6331 (antibody, V domains shown)
VH: EVQLVESGAEVKKPGSSVKVSCKASGGTFSSYAISWVRQAPGQGLEWMGGIIGMFGTANYAQKFQGRVTITADEFTSTAYMELSSLRSEDTAVYYCARGNYYYESSLDYWGQGTLVTVSS
VL: QSVVTQPPSVSVAPGQTARITCGGNNIGSKSVHWYQQKPGQAPVLVVYDDSDRPSGIPERFSGSNSGNTATLTISRVEAGDEADYYCQVWDSSSDHYVFGTGTKVTVLG
OD 492 nm [1]: 0.06 OD 492 nm
OD 492 nm [3]: 1.32 OD 492 nm
